Substitutions are numbered along the chain they refer to.
T1: RB69 DNA polymerase gp43 PolY567A Exo+ (bacteriophage RB69, UniProt Q38087 1-903, Y567A)
T1 sequence: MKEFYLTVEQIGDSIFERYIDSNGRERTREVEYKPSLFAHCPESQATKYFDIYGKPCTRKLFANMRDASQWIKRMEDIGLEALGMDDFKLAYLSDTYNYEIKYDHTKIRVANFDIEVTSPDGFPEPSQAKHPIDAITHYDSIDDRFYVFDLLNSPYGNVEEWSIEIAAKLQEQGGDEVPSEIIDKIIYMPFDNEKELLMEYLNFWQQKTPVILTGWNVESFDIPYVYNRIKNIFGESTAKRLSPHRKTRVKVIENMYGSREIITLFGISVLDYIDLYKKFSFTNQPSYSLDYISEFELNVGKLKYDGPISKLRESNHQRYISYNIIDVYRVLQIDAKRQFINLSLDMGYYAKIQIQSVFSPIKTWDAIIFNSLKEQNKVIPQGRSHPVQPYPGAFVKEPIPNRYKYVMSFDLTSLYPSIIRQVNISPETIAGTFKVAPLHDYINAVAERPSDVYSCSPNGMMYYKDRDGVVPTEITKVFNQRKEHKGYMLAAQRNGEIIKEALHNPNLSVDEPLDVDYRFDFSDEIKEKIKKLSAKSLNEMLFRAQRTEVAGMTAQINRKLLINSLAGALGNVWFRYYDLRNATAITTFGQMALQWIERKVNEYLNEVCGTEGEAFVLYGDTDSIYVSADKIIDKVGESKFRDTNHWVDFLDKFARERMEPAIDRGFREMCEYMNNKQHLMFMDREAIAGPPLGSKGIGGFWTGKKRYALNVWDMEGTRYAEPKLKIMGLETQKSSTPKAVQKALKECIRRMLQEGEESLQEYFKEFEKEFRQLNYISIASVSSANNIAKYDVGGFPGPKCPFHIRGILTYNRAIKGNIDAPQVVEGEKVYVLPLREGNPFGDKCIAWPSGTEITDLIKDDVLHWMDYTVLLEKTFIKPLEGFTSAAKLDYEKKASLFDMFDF

T2: RB69 DNA polymerase gp43 PolS565G/Y567A Exo+ (bacteriophage RB69, UniProt Q38087 1-903, S565G;Y567A)
T2 sequence: T1 sequence with S565G

T3: RB69 DNA polymerase gp43 PolS565G Exo+ (bacteriophage RB69, UniProt Q38087 1-903, S565G)
T3 sequence: T1 sequence with S565G, A567Y

T4: RB69 DNA polymerase gp43 Pol+ Exo+ (wild type) (bacteriophage RB69, UniProt Q38087 1-903)
T4 sequence: T1 sequence with A567Y

B1: normal dsDNA primer/template 20/35-mer (dsDNA)
DNA 1: TTTGATGTATTATCAATTGT
DNA 2: TGCCTTCGTAATCTTACAATTGATAATACATCAAA
B2: mismatched dsDNA primer/template 20/30-mer, terminal T·G (dsDNA)
DNA 1: ATGTGCTGCAAGGCGATTAG
DNA 2: GTTACCCAACTTAATCGCCTTGCAGCACAT

What was measured:
Assay in all cases: EMSA
[1] = biological target: T1, RB69 DNA polymerase gp43 PolY567A Exo+
[2] = biological target: T2, RB69 DNA polymerase gp43 PolS565G/Y567A …
[3] = biological target: T3, RB69 DNA polymerase gp43 PolS565G Exo+
[4] = biological target: T4, RB69 DNA polymerase gp43 Pol+ Exo+ …

| Binder | Kd [1] [nM] | Kd [2] [nM] | Kd [3] [nM] | Kd [4] [nM] |
| --- | --- | --- | --- | --- |
| B1 | 13.2 ± 1.4 | 29.9 ± 1.9 | 38.9 ± 3.4 | 6.9 ± 2.1 |
| B2 | 25.7 ± 3.2 | 79.9 ± 4.8 | 132 ± 5.7 | 38.2 ± 4.3 |
